Literature values as cited in PMC3288267.

How the values were obtained:
[1] = biological target: transferrin receptor 1 (TfR), immobilised on SPR chip (UniProt P02786); test: Surface plasmon resonance, kinetic; settings: pH endosomal pH (numeric value not given)
[2] = biological target: transferrin receptor 1 (TfR), immobilised on SPR chip (UniProt P02786); test: Surface plasmon resonance, equilibrium binding; settings: pH endosomal pH (numeric value not given)

Sequence of UniProt P02786 (P02786 whole entry): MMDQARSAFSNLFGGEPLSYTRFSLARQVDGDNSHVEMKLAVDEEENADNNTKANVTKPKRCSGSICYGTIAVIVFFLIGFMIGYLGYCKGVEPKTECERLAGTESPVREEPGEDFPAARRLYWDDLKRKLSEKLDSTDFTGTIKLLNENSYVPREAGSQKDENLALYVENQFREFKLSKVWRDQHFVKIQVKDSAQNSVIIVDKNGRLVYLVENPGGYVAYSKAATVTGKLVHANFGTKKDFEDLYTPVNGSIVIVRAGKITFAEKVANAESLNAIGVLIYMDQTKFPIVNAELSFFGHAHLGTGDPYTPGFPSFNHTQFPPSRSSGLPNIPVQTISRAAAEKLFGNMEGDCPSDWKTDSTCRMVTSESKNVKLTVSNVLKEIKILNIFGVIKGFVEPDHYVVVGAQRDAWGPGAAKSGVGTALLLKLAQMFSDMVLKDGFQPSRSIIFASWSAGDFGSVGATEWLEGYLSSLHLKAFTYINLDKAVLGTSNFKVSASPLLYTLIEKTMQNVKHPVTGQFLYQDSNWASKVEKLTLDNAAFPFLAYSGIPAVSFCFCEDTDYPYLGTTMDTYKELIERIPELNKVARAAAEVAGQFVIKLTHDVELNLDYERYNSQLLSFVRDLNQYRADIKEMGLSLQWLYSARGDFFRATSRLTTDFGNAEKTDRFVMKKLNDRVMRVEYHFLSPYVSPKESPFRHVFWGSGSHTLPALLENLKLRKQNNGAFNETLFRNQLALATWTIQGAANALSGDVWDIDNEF

- KD (from kd,end/ka,end) [1]: 1.3 nM
- ka,end (association rate constant; kend,a in Table 1) [1]: 4.4 ± 0.4 × 10^7 min^−1 M^−1
- kd,end (dissociation rate constant; kend,d in Table 1) [1]: 0.000933 ± 0.0002 s⁻¹
- KD (equilibrium SPR) [2]: <15 nM
Substance: apo-transferrin (iron-free), SPR analyte
